Assay results from IntAct's records for PubMed 10318831.

B1: Semaphorin-4C (Mus musculus), Q64151 (parent)
chain: MAPHWAVWLLAAGLWGLGIGAEMWWNLVPRKTVSSGELVTVVRRFSQTGIQDFLTLTLTEHSGLLYVGAREALFAFSVEALELQGAISWEAPAEKKIECTQKGKSNQTECFNFIRFLQPYNSSHLYVCGTYAFQPKCTYINMLTFTLDRAEFEDGKGKCPYDPAKGHTGLLVDGELYSATLNNFLGTEPVILRYMGTHHSIKTEYLAFWLNEPHFVGSAFVPESVGSFTGDDDKIYFFFSERAVEYDCYSEQVVARVARVCKGDMGGARTLQKKWTTFLKARLVCSAPDWKVYFNQLKAVHTLRGASWHNTTFFGVFQARWGDMDLSAVCEYQLEQIQQVFEGPYKEYSEQAQKWARYTDPVPSPRPGSCINNWHRDNGYTSSLELPDNTLNFIKKHPLMEDQVKPRLGRPLLVKKNTNFTHVVADRVPGLDGATYTVLFIGTGDGWLLKAVSLGPWIHMVEELQVFDQEPVESLVLSQSKKVLFAGSRSQLVQLSLADCTKYRFCVDCVLARDPYCAWNVNTSRCVATTSGRSGSFLVQHVANLDTSKMCNQYGIKKVRSIPKNITVVSGTDLVLPCHLSSNLAHAHWTFGSQDLPAEQPGSFLYDTGLQALVVMAAQSRHSGPYRCYSEEQGTRLAAESYLVAVVAGSSVTLEARAPLENLGLVWLAVVALGAVCLVLLLLVLSLRRRLREELEKGAKASERTLVYPLELPKEPASPPFRPGPETDEKLWDPVGYYYSDGSLKIVPGHARCQPGGGPPSPPPGIPGQPLPSPTRLHLGGGRNSNANGYVRLQLGGEDRGGSGHPLPELADELRRKLQQRQPLPDSNPEESSV
partner: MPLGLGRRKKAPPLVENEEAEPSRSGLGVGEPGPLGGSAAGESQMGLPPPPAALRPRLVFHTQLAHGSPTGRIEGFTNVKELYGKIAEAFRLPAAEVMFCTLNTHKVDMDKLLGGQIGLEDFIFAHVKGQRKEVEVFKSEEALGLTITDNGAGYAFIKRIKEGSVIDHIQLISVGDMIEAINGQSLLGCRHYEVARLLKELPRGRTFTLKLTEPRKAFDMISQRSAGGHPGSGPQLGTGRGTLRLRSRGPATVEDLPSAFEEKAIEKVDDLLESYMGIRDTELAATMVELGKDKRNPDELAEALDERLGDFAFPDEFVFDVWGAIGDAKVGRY

Variants of: B1
Details: with gipc1_mouse Gipc1, Q9Z0G0

Variant | effect of a mutation on the interaction
S832A | disrupting interaction
S832D | disrupting interaction
